Data set [1] in a line: intracellular IDUA activity 24 h after enzyme addition. To be noted: glycan changed form; control: HM-IDUA.
Data set [2] can be described thus: AcidiFluor ORANGE live-cell imaging of lysosomal delivery. To be noted: glycan changed form; control: AFO-labeled HM-IDUA.

B1: α-L-iduronidase (hIDUA): M6P-IDUA (Endo-D, then Endo-M N175Q transglycosylation) (protein)
parent chain: MRPLRPRAALLALLASLLAAPPVAPAEAPHLVHVDAARALWPLRRFWRSTGFCPPLPHSQADQYVLSWDQQLNLAYVGAVPHRGIKQVRTHWLLELVTTRGSTGRGLSYNFTHLDGYLDLLRENQLLPGFELMGSASGHFTDFEDKQQVFEWKDLVSSLARRYIGRYGLAHVSKWNFETWNEPDHHDFDNVSMTMQGFLNYYDACSEGLRAASPALRLGGPGDSFHTPPRSPLSWGLLRHCHDGTNFFTGEAGVRLDYISLHRKGARSSISILEQEKVVAQQIRQLFPKFADTPIYNDEADPLVGWSLPQPWRADVTYAAMVVKVIAQHQNLLLANTTSAFPYALLSNDNAFLSYHPHPFAQRTLTARFQVNNTRPPHVQLLRKPVLTAMGLLALLDEEQLWAEVSQAGTVLDSNHTVGVLASAHRPQGPADAWRAAVLIYASDDTRAHPNRSVAVTLRLRGVPPGPGLVYVTRYLDNGLCSPDGEWRRLGRPVFPTAEQFRRMRAAEDPVAAAPRPLPAGGRLTLRPALRLPSLLLVHVCARPEKPPGQVTRLRALPLTQGQLVLVWSDEHVGSKCLWTYEIQFSQDGKAYTPVSRKPSTFNLFVFSPDTGAVSGSYRVRALDYWARPGPFSDPVPYLEVPVPRGPPSPGNP
For B1, the “other: cellular uptake” value in data set [1] is given as “increases”.

B2: α-L-iduronidase (hIDUA): M6P-IDUA (protein)
parent chain: B1 parent chain
Regarding B2, the localisation_or_trafficking result in data set [2] was “increases”.

B3: α-L-iduronidase (hIDUA): SG-IDUA (protein)
parent chain: B1 parent chain
Regarding B3, in data set [2], the localisation_or_trafficking result is listed as “increases”.

B4: α-L-iduronidase (hIDUA): SG-IDUA (Endo-CC N180H transglycosylation) (protein)
parent chain: B1 parent chain
With B4, the “other: cellular uptake” value in data set [1] was “increases”.

The record behind these values is publication PMC12008302.
